According to US6333167:

Columns and labels:
[1] = molecular target: LacI-SREBP2 fusion protein encoded by pCMV-ISRP (human (SREBP2 portion))
[2] = molecular target: APP-LacI fusion protein encoded by pCMV-APPI (Artificial Sequence)

| luciferase activity in the repressor release assay (pRSVO-luc reporter, CHO-K1 cells) (fold reduction) [1] | luciferase activity in the repressor release assay (pRSVO-luc reporter, CHO-K1 cells) (fold reduction) [2] | Substance |
| --- | --- | --- |
| 100 |  | Site-2 protease (S2P) (enzyme) |
|  | 35 | γ-secretase (enzyme) |
